# Values joined by “and” are separate entries in the source; they are usually repeats but may differ in a detail not shown here. Equal values may be shown once. Bridge positions count the residues as written; N and C are the ends. Square brackets hold non-standard residues; d marks the D form. Ends that are not written are not given here. dOrn = NCCC[C@@H](N)C(=O)O
# Target: T1, SaNsrP-ECD, soluble extracellular domain of SaNsrP (S. agalactiae)
# T1 construct: also called SaNsrFP ECD
# Assay: other fluorescence titration
# Conditions: both partners purified
binder,measurement,value
ICL[dE]IK[dOrn]I[dF]H[dD]N (lactam 6-C; also: N-terminal thiazoline: Ile1-Cys2 condensed) [bacitracin],Kd,259 µM and 304 µM

# — article PMC12484072 (Frontiers in Microbiology, 2025)
